Source: patent US20180021429A1 (PHARMA FOODS INTERNATIONAL, published 2018)
Numbering of substitutions follows the chain as printed.

T1: human FSTL1 (construct not stated) (human, UniProt Q12841 21-308)
T1 construct: also called human FSTL1 antigen; FSTL1 (R&D Systems, Inc. Cat#1694-FN-050)
T1 sequence: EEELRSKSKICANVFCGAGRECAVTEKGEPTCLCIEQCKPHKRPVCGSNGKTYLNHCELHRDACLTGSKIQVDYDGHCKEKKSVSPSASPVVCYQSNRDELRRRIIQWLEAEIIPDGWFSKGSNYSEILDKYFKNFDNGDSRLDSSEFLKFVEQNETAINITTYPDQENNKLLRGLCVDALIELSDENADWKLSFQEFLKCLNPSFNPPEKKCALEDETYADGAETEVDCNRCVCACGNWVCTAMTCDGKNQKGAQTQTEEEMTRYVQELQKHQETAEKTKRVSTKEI

B1: anti-FSTL1 antibody clone #8-7 (chicken-mouse chimeric antibody) (antibody, mouse IgG1, kappa, V domains shown)
VH: AVTLDESGGGLQTPGGGLSLVCKGSGFTFSSFNMFWVRQAPGKGLEWVAGIGKDGVPKYGAAVDGRATISKDNGQSTLRLQLNNLRAEDTGTYFCAKAAGGCSYDWCGIYAGDIDTWGHGTEVIVSS
VL: ASTQPSSVSANPGEAVKITCSGGSGSYYGWYQQKSPGSAPVTVIYNNNQRPSDIPSRFSGSKSGSTATLTITGVQAEDEAVYFCGGYDSSTGHGGIFGAGTTLTVLG
B2: anti-FSTL1 antibody clone #5-3 (chicken-mouse chimeric antibody) (antibody, mouse IgG1, kappa, V domains shown)
VH: B1 VH with G17A, T28S, L78M
VL: ASTQPSSVSANPGETVKITCSGGSGYYYGWYQQKSPGSVPVTVIYNNNNRPSDIPSRFSGSKSGSTGTLTITGVRAEDEAVYYCGGYDNSGTGIFGAGTTLTVLG
B3: anti-FSTL1 antibody clone #5-2 (chicken-mouse chimeric antibody) (antibody, mouse IgG1, kappa, V domains shown)
VH: B1 VH with I51V, V56G, P57T, K58G, F94Y, D105G, I109S, A111V, T116A
VL: B1 VL
B4: anti-FSTL1 antibody clone #8-8 (chicken-mouse chimeric antibody) (antibody, mouse IgG1, kappa, V domains shown)
VH: B1 VH with G17A, L78M, F94Y, D105G, I109A, A111T
VL: B1 VL with A76V
B5: anti-FSTL1 antibody clone #5-43 (chicken-mouse chimeric antibody) (antibody, mouse IgG1, kappa, V domains shown)
VH: B1 VH with V56G, P57T, K58G, N73S, F94Y, I109A, A111T
VL: B1 VL
B6: anti-FSTL1 antibody clone #5-10 (chicken-mouse chimeric antibody) (antibody, mouse IgG1, V domains shown)
VH: AVTLDESGGGLQTPGGGLSLVCKGSGFTLSSFNMFWVRQAPGKGLEWVAGVGKDGGTTYGAAVDGRATISRDSGQSTVRLQLNDLRAEDTGTYFCAKAAGGCSYSWCGAYVGDLDAWGHGTEVIVSS
VL: ASTQPSSVSANPGETVKITCSGGGSYVGSYYYGWYQQKSPGSAPVTVIYNNNQRPSDIPSRFSGSKSGSTATLTITGVQAEDEAVYFCGGYDSSAGGIFGAGTTLTVLG

Each binder was assayed against T1, human FSTL1 (construct not stated) (assay: SPR (Biacore T-200), captured antibody, human FSTL1 10 µg/ml; as to Dissociation amount (RU): time not given here).
Procedure: (§1) The mouse chimeric antibodies were immobilized onto Sensor Chip CM5 (GE Healthcare Japan Corp., BR-1005-30) using Mouse Antibody Capture Kit (GE Healthcare Japan Corp., BR-1008-38), and their affinity for human FSTL1 was calculated using Biacore T-200 (GE Healthcare Japan Corp.).

| Binder | Binding amount (RU) | Dissociation amount (RU) |
| --- | --- | --- |
| B1 | 12.8 RU | 11.8 RU |
| B2 | 11 RU | 8.8 RU |
| B3 | 9.2 RU | 7.1 RU |
| B4 | 8 RU | 4.7 RU |
| B5 | 7 RU | 3.1 RU |
| B6 | 9.8 RU | 12.1 RU |

Target: T1, human FSTL1 (construct not stated)
Test: as above
Remark: another data set of the same source
Procedure: as §1
(§2) First, the exhaustive activity comparison of the obtained antibodies was conducted with the human FSTL1 concentration fixed to 10 μg/ml (Table 33-1, FIG. 28).

| Binder | Binding amount (RU) | Dissociation amount (RU) |
| --- | --- | --- |
| B1 | 12.8 RU | 11.8 RU |
| B2 | 11 RU | 8.8 RU |
| B3 | 9.2 RU | 7.1 RU |
| B4 | 8 RU | 4.7 RU |
| B5 | 7 RU | 3.1 RU |
| B6 | 9.8 RU | 12.1 RU |

Target: T1, human FSTL1 (construct not stated)
Test: as above
Remark: another data set of the same source
Procedure: as §1, §2

| Binder | Binding amount (RU) | Dissociation amount (RU) |
| --- | --- | --- |
| B1 | 12.8 RU | 11.8 RU |
| B2 | 11 RU | 8.8 RU |
| B3 | 9.2 RU | 7.1 RU |
| B4 | 8 RU | 4.7 RU |
| B5 | 7 RU | 3.1 RU |
| B6 | 9.8 RU | 12.1 RU |

Target: T1, human FSTL1 (construct not stated)
Test: as above
Remark: another data set of the same source
Procedure: as §1, §2

| Binder | Binding amount (RU) | Dissociation amount (RU) |
| --- | --- | --- |
| B1 | 12.8 RU | 11.8 RU |
| B2 | 11 RU | 8.8 RU |
| B3 | 9.2 RU | 7.1 RU |
| B4 | 8 RU | 4.7 RU |
| B5 | 7 RU | 3.1 RU |
| B6 | 9.8 RU | 12.1 RU |
